We go through eight substances from paper PMC5874916.

Assay [1] concerns the target HaloTag-eEF1A (UniProt P68104). Nature of the assay: NanoBRET. To be noted: HEK293T cells cotransfected; n = 3; parent: est. 100; read off a plot. Background: Bioluminescence resonance energy transfer reports proximity on the nanometre scale.
In assay [2] the target is HaloTag-eEF1A (UniProt P68104). Nature of the assay: FRET or BRET; NanoBRET in HEK293T cells cotransfected with 5 ng RTp66-NanoLuc (donor) and 500 ng HaloTag-eEF1A (acceptor), HaloTag NanoBRET 618 Ligand; BRET ratio of the RSV P-NanoLuc control subtracted, normalized to WT RT.
Assay [3] concerns the target purified recombinant eEF1A1 (OriGene), biotinylated (UniProt P68104). Kind of assay: BLI; Octet Red; biotinylated eEF1A1 immobilised on streptavidin-coated biosensors, 90 nM RTp51/p66 heterodimer; kinetic buffer 1 mM phosphate, 15 mM NaCl, 0.002% Tween 20, 0.1 mg/ml gelatin. On the technique in general: Biolayer interferometry detects binding as a change in optical thickness at a sensor tip.

Assay [4] addresses HIV-1 reverse transcriptase (Human immunodeficiency virus 1) (UniProt O93215). The settings on record: cited from earlier work.
Assay [5] has as its target purified recombinant eEF1A1 (OriGene), biotinylated (UniProt P68104). Nature of the assay: BLI. The settings on record: biotinylated eEF1A immobilized on a streptavidin-coated biosensor, 90 nM RT heterodimer, E300R in both RTp51 and RTp66 subunits.

Sequence of HaloTag-eEF1A (P68104 whole entry): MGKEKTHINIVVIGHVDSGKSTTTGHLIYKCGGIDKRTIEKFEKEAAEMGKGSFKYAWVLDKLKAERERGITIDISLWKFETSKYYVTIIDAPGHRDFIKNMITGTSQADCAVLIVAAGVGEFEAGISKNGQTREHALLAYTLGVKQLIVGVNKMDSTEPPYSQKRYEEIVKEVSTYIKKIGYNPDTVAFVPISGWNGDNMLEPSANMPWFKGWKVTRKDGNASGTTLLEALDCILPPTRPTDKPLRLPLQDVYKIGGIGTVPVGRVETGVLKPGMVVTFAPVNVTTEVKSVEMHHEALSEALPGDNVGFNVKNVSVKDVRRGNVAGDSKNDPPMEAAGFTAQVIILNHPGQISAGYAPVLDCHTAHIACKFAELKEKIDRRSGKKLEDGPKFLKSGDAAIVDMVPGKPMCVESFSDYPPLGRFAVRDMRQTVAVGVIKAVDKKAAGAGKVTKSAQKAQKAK
Sequence of purified recombinant eEF1A1 (OriGene), biotinylated (P68104 whole entry): as above
Sequence of eEF1A (P68104 2-462): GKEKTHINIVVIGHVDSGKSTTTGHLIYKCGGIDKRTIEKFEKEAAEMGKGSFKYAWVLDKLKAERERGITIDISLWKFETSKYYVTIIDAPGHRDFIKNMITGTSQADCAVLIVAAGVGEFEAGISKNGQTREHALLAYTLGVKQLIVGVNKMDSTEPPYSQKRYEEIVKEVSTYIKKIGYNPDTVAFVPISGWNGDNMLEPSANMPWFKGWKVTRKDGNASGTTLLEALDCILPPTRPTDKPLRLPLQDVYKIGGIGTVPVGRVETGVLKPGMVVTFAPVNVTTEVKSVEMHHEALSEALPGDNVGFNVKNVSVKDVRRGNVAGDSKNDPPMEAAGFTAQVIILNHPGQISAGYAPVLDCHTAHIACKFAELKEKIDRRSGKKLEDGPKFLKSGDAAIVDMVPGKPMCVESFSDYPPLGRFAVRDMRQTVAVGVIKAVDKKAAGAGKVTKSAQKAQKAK

For the substance HIV-1 RTp66-NanoLuc, wild type L303A, the percent of parent with HaloTag-eEF1A [1] turned out to be 43 % WT. HIV-1 RTp66-NanoLuc, E297R (enzyme): the percent reduction of the BRET ratio against WT RT with HaloTag-eEF1A [2] was determined as 20%. Turning to HIV-1 RTp66-NanoLuc, E300R (enzyme), the percent reduction of the BRET ratio against WT RT with HaloTag-eEF1A [2] worked out at 70%. “6xHis-tagged E300R mutant RTp51/p66 heterodimer purified from E. coli (complex)”: in assay [3], the fold change of koff against the WT heterodimer stood at 3 fold and the fold weaker binding affinity (KD) than the WT heterodimer was 3 fold. Turning to eEF1A (from UniProt P68104), in assay [4], the Kd (in general, the equilibrium constant for the complex coming apart) is 3.5 nM. Take “6xHis-tagged WT RTp51/p66 heterodimer purified from E. coli (from UniProt P04585) E300R”: the Kd in assay [5] (parent: 3.4787 ± 0.079) amounted to 10.3 nM. For the same substance, in assay [5] (parent: 4.75E-4 ± 2.5E-5), the dissociation rate constant (koff) (commonly a measure of how fast the partners let go of each other) amounted to 0.00139 s⁻¹. Moreover, the kon – broadly, a measure of how fast the partners come together – in assay [5] (parent: 136350 ± 4150) was 135000 1/MS. In the case of HIV-1 RTp66-NanoLuc, D250R (enzyme), in the assay with HaloTag-eEF1A [2], the percent reduction of the BRET ratio against WT RT worked out at 33%. On the same count and under the same terms, the result for HIV-1 RTp66-NanoLuc, E298R (enzyme) reads 40%.
